In publication PMC7170509, “Substrate recognition and ATPase activity of the E. coli cysteine/cystine ABC transporter YecSC-FliY” (The Journal of Biological Chemistry, 2020):
Each block holds one molecule with its values, some of them ahead of it.

Assays:
FliY [1] = target: T1, FliY (Escherichia coli, UniProt P0AEM9); experiment: isothermal titration calorimetry; format: binding
T1 construct: gene tcyJ; C-terminal His6 tag (pET21b); expressed in E. coli BL21-Gold(DE3), purified from osmotic shock extract; monomer

FliY [2] = target: T1, FliY; experiment: nanoDSF thermal shift; format: binding; conditions: 30 μM FliY, 200 μM ligand; 50 mM Tris-HCl pH 7.5, 250 mM NaCl
[3] = target: T2, YecSC, the E. coli cysteine/cystine ABC transporter (YecS transmembrane domain and YecC nucleotide-binding … (E. coli, UniProt P0AFT2 1-222; P37774 1-250); experiment: cell-based or functional assay
T2 sequence (looked up) 1: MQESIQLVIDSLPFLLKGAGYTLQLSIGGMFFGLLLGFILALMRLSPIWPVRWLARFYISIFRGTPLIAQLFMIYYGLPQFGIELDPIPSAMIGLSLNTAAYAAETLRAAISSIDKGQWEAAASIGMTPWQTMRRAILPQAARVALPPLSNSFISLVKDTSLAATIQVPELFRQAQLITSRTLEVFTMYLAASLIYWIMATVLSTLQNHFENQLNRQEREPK
T2 sequence (looked up) 2: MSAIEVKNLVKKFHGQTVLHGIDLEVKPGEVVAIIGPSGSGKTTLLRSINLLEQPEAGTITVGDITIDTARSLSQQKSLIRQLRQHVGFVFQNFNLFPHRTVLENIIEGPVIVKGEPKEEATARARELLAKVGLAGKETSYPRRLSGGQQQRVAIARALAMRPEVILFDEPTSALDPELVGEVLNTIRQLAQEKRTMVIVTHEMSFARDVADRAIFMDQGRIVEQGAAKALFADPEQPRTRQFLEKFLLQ

Kd (FliY [1]): 10 ± 3.4 µM
Molecule: N[C@H](CS)C(=O)O [D-cysteine]

Kd (FliY [1]): 14.4 ± 2.4 µM
Molecule: N[C@@H](CS)C(=O)O [L-cysteine]

Kd (FliY [1]): 9.3 ± 2.8 µM
Molecule: N[C@@H](CSSC[C@H](N)C(=O)O)C(=O)O [L-cystine]
dTm (FliY [2]): the L-enantiomer of its oxidized dimeric form (Cys-S-S-Cys, cystine) also led to thermostabilization of FliY

apparent Km for FliY of the stimulation of ATP hydrolysis by 1 μM YecSC (0.25–20 μM FliY), in the absence of substrate (apo FliY) [3]: 10.3 µM | apparent Km for FliY of the stimulation of ATP hydrolysis by 1 μM YecSC (0.25–20 μM FliY), in the presence of 100 μM L-cystine (holo FliY) [3]: 1.1 µM | interaction ratio from the Michaelis–Menten fit of initial ATPase rates of YecSC against FliY concentration, without and with L-cystine [3]: 1 FliY:YecSC | stimulation of the ATPase activity of YecSC by FliY with L-cystine, over basal activity [3]: ~11 fold | stimulation of the ATPase activity of YecSC by substrate-free apo FliY, over basal activity [3]: ~3 fold
B1: FliY, the substrate-binding protein (SBP) of the E. coli YecSC-FliY cysteine/cystine ABC import system (natural protein, UniProt P0AEM9 30-266, looked up)
chain: DEGLLNKVKERGTLLVGLEGTYPPFSFQGDDGKLTGFEVEFAQQLAKHLGVEASLKPTKWDGMLASLDSKRIDVVINQVTISDERKKKYDFSTPYTISGIQALVKKGNEGTIKTADDLKGKKVGVGLGTNYEEWLRQNVQGVDVRTYDDDPTKYQDLRVGRIDAILVDRLAALDLVKKTNDTLAVTGEAFSRQESGVALRKGNEDLLKAVNDAIAEMQKDGTLQALSEKWFGADVTK
